Assay [1] concerns the target T1, fusion protein of a human IgG1 Fc domain and cynomolgus monkey LAP-TGFβ1 (human; cynomolgus monkey).
T1 construct: also called cynomolgus monkey LAP-TGFβ-Fc
The assay can be described thus: BLI, 2:1 model, component 2. On the procedure: (§1) The 20E6_H0.2aL1_IgG1 antibody was biotinylated using EZ-Link SulfoNHS-LC-Biotin (ThermoFisher). A streptavidin-functionalized tip was equilibrated in binding buffer (10 mM sodium phosphate, 150 mM sodium chloride, 1% (w/v) bovine serum albumin, 0.05% (w/v) sodium azide, pH 7.4) and dipped in a 10 μg/mL solution of biotinylated anti-LAP in binding buffer for 30 seconds to load the tip with antibody. The antibody-loaded tip was then washed in binding buffer and placed in a solution containing 0-24 nM of a fusion protein having a human IgG1 Fc domain fused to either human LAP-TGFβ1, human LAP-TGFβ2 or human LAP-TGFβ3. The antigen was allowed to bind to antibody for 5 minutes (association phase), and then the tip was moved to binding buffer (dissociation phase). The association and dissociation phases were fit to a 2:1 heterogenous ligand binding model to determine the binding rate constants. As shown in FIG. 21A and Table 17, 20E6_H0.2aL1_IgG1 bound with sub-nanomolar affinity to human LAP-TGFβ1, but not to human LAP-TGFβ2 (FIG. 21B) or LAP-TGFβ3 (FIG. 21C).
(§2) The binding of 20E6_H0.2aL1_IgG1 antibody and 20E6_H0.2aL1_hIgG4mut antibody to LAP-TGFβ1 of various species was examined by bio-layer interferometry using the method described in Example 12, except that the antibody-loaded tip was placed in a solution containing 0-24 nM of a fusion protein having a human IgG1 Fc domain fused to either mouse, rat, cynomolgus monkey, or human LAP-TGFβ1.
(In general: In BLI a coated tip is dipped into the sample, and binding shifts an interference pattern.)

For assay [2], the target named is T2, fusion protein of a human IgG1 Fc domain and human LAP-TGFβ1 (human, UniProt P01137 30-390).
T2 construct: printed both as Fc-huB1 and LAP-TGFβ-Fc; also called Fc-huB1; Fc-human LAP
T2 sequence (P01137 30-390 limits assumed): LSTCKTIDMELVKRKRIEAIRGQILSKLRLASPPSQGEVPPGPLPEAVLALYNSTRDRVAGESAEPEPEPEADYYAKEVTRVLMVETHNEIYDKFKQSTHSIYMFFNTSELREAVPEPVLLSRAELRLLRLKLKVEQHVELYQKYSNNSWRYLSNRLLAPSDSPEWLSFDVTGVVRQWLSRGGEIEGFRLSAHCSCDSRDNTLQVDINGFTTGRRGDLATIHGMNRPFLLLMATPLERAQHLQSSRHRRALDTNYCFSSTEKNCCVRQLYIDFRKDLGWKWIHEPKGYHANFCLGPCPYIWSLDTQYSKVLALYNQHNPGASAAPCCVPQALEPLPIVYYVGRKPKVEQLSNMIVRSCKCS
The assay can be described thus: BLI, 2:1 model, component 2. On the procedure: as §1, §2

For assay [3], the target named is T3, fusion protein of a human IgG1 Fc domain and mouse LAP-TGFβ1 (human; mouse, UniProt P04202 30-390).
T3 construct: also called mouse LAP-TGFβ-Fc
T3 sequence (P04202 30-390 limits assumed): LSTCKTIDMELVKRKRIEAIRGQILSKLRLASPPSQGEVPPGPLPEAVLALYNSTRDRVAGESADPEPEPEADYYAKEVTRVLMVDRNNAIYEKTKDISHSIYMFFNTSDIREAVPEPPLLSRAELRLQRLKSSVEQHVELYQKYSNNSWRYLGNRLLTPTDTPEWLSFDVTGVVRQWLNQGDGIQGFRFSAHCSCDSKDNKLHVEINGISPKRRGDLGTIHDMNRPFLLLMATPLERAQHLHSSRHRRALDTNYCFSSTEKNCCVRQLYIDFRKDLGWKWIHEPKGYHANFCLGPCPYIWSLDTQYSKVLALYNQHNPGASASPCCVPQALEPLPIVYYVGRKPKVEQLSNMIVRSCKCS
The assay can be described thus: BLI, 2:1 model, component 2. On the procedure: as §1, §2

For assay [4], the target named is murine LAP-TGFβ1 overexpressed on cells (mouse, UniProt P04202 30-390). The assay can be described thus: cell-based or functional assay.
Chain of murine LAP-TGFβ1 overexpressed on cells (P04202 30-390): as the sequence (P04202 30-390 limits assumed) above
In assay [5] the target is T2, fusion protein of a human IgG1 Fc …. The assay can be described thus: BLI, 2:1 model, component 2. On the procedure:
A streptavidin-functionalized tip was equilibrated in binding buffer (10 mM sodium phosphate, 150 mM sodium chloride, 1% (w/v) bovine serum albumin, 0.05% (w/v) sodium azide, pH 7.4) and dipped in a 5 μg/mL solution of biotinylated antibody (i.e., 20E6_H0.2aL1_hIgG1, murine 16F4, or MHG8, a GARP-specific murine IgG2a described in Lienart et al. Science 2018; 362:952-956) in binding buffer for 30 seconds to load the tip with antibody. The antibody-loaded tip was then washed in binding buffer and placed in a solution containing 0-24 nM of a fusion protein containing a human IgG1 Fc domain fused to either human LAP-TGFβ1, the soluble GARP-LAP-TGFβ1 complex, or the soluble ECR3E-LAP-TGFβ1 complex. The antigen was allowed to bind to antibody for 5 minutes (association phase), and then the tip was moved to binding buffer (dissociation phase). The binding and dissociation data for 16F4 and MHG8 were well-fit by a 1:1 binding model. The association and dissociation phases for 20E6_H0.2aL1_hIgG1 antibody were fit to a 2:1 heterogenous ligand binding model to determine the binding rate constants.
As shown in FIG. 24 and Table 21, the 20E6_H0.2aL1_hIgG1 antibody bound to free LAP-TGFβ1 and the soluble GARP-LAP-TGFβ1 complex with nanomolar affinity, but not to the ECR3E-LAP-TGFβ1 complex. As expected, the anti-GARP antibody (MHG8) bound to the GARP-LAP-TGFβ1 complex, but not to free LAP-TGFβ1 or the ECR3E-LAP-TGFβ1 complex. 16F4 bound tightly to all three constructs.
The source holds these as a separate data set.

Assay [6] addresses T4, human LAP-TGFβ3 overexpressed on HT1080 cells (human, UniProt P10600 24-412).
T4 construct: also called HT1080-huB3
T4 sequence: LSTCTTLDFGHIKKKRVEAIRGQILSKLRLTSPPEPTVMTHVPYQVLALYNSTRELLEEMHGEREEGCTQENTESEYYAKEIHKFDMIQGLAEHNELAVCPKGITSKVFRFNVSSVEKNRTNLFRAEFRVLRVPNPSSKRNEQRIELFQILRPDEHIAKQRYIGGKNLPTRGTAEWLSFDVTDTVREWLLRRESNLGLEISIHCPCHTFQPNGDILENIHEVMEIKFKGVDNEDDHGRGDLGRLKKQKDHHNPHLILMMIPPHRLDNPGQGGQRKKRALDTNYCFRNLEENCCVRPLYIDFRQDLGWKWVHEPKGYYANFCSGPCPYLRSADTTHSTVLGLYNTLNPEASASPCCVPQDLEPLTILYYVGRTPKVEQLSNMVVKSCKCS
Briefly: flow cytometry titration, HT1080-huB3 cells. On the procedure: This Example describes the binding of anti-LAP antibodies to LAP-TGFβ isoforms and LAP-TGFβ variants. In addition to antibodies 28G11_hIgG1, 22F9_hIgG1, and 20E6_hIgG1, anti-LAP antibodies 17G8_hIgG1, 24E3_hIgG1, and 2C9_(hyb) were also tested in this experiment. Briefly, 4×10⁵ each of (a) HT1080 cells, (b) HT1080 cells overexpressing human LAP-TGFβ1, (c) HT1080 cells overexpressing human LAP-TGFβ2, (d) HT1080 cells overexpressing human LAP-TGFβ3, (e) HT1080 cells overexpressing murine LAP-TGFβ1, (f) P3U1 cells, (g) P3U1 cells overexpressing LAP-TGFβ1 and GARP, and (h) P3U1 cells overexpressing LAP-TGFβ1 and LRRC33 were cultured in 96-well plates. The plates were centrifuged for 5 min at 1,500 rpm, liquid was removed, and cells were resuspended with 200 μL FACS buffer. The plates were centrifuged again, diluted primary antibody was added to each well, and the plates were incubated on ice for 20 minutes, followed by centrifugation. The cells were resuspended in 200 μL FACS buffer, centrifuged again, and resuspended in 50 μL diluted secondary antibody (Alexa647-anti-Human IgG or APC-anti-Mouse IgG). The plates were incubated on ice for 20 minutes in the dark, washed twice with 200 μL FACS buffer, and cells from each well (in 200 μL FACS buffer) were read on the Attune NXT instrument.
(In general: A flow cytometer gives signals particle by particle.)

As a reminder, the Kd is a measure of binding affinity in units of concentration. As usually defined, the koff is a measure of how fast the partners let go of each other. One may read the kon as a measure of how fast the partners come together.

Like-named read-outs stand apart in the source and are kept apart here.

B1: 20E6_H0.2aL1_hIgG1 (antibody)
heavy: not shown
light: DIQMTQSPSSLSASVGDRVTITCRASQDITNYLNWYQQKPGKAVKLLIYYTSRLHSGVPSRFSGSGSGTDYTLTISSLQPEDFATYFCQQGDTLPWTFGQGTKLEIKRTVAAPSVFIFPPSDEQLKSGTASVVCLLNNFYPREAKVQWKVDNALQSGNSQESVTEQDSKDSTYSLSSTLTLSKADYEKHKVYACEVTHQGLSSPVTKSFNRGEC
notes: also called 20E6_H0.2aL1_IgG1; humanized 20E6
B1: the Kd came to 0.71 nM in assay [1], 0.97 nM in assay [2], 0.56 nM in assay [3] and 0.96 nM in assay [5]. Also, the dissociation rate constant (koff) in assay [1] was found to be 0.000728 s⁻¹; in assay [2] it was 0.000657 s⁻¹; in assay [3], 0.00039 s⁻¹; in assay [5], 0.00092 s⁻¹. Besides, the kon in assay [1] worked out at 1.03e+06 M⁻¹ s⁻¹; in assay [2], 680000 M⁻¹ s⁻¹; in assay [3] it was 700000 M⁻¹ s⁻¹; in assay [5], 960000 M⁻¹ s⁻¹. For the same molecule, the “IC50 of inhibition of TGFβ1 activation” value in assay [4] is 1.7 µg/mL.

B2: 22F9_hIgG1 (antibody, V domains shown)
VH: QVQLQQPGAELVKPGASVKLSCKASGYTFTSYWMHWVKQRPGQGLEWIGMIHPNSGSTNYNEKFKSKATLTVDKSSSTAYMQLSSLTSEDSAVYYCAYYDYDGFFDVWGTGTTVTVSS
VL: DIVLTQSPASLDVSLGQRATISCRASKSVSTSGYSYMHWYQQKSGQPPKLLIYLASNLESGVPARFSGSGSGTHFTLNIHPVEEEDAATYYCQHSRELPYTFGGGTKLEIK
Turning to B2, the binding result in assay [6] was “no binding (tested: about 800 ng/well)”.

The record behind these values is US20220017612A1 (TILOS THERAPEUTICS, published 2022).
